Data from publication PMC9596381, “GPC3-Unc5 receptor complex structure and role in cell migration” (Cell, 2022).

Key:
[1] = biological target: T1, human glypican-3 core domain, residues 32-483 (hGPC3^core) (human, UniProt P51654 32-483, N-linked glycans at N124 and N241); test: SPR; Unc5A-D ectodomains immobilised; hGPC3^core or mGPC3^ecto injected in a 2-fold dilution series (top 4.5 uM) with Fc control protein, Nano^glue or Nano^break kept constant at 9 uM (with hGPC3^core) or 4.5 uM (with mGPC3^ecto); conditions: both partners purified
T1 construct: human glypican-3 (GPC3), core domain, residues 32-483; Only partly cleaved at the furin-like site (R355-R358); the two fragments stay covalently attached; The forward primer starts at Met1; source: HEK293T or GnTI-deficient HEK293S, transiently transfected, secreted, purified (HisTrap, SEC); not shown: His6, C-terminal, kept
T1 sequence (P51654 32-483): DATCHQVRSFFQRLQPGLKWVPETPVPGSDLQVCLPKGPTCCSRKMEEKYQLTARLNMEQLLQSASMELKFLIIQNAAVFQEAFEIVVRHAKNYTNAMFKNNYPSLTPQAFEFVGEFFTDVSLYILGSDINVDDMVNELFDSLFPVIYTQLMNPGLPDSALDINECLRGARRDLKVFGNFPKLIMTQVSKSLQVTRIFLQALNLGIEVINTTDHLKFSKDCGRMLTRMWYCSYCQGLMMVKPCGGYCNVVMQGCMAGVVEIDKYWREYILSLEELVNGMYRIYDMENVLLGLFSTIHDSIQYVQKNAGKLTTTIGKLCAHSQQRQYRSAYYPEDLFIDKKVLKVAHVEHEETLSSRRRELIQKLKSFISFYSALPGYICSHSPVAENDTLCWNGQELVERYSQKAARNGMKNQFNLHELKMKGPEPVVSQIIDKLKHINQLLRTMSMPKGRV

[2] = biological target: T2, murine GPC3 ectodomain, residues 31-559 (mGPC3^ecto) (mouse, UniProt Q8CFZ4 31-559); test: as above; conditions: both partners purified
T2 construct: mouse glypican-3 (GPC3), residues 31-559; source: HEK293 cells, purified
T2 sequence (Q8CFZ4 31-559): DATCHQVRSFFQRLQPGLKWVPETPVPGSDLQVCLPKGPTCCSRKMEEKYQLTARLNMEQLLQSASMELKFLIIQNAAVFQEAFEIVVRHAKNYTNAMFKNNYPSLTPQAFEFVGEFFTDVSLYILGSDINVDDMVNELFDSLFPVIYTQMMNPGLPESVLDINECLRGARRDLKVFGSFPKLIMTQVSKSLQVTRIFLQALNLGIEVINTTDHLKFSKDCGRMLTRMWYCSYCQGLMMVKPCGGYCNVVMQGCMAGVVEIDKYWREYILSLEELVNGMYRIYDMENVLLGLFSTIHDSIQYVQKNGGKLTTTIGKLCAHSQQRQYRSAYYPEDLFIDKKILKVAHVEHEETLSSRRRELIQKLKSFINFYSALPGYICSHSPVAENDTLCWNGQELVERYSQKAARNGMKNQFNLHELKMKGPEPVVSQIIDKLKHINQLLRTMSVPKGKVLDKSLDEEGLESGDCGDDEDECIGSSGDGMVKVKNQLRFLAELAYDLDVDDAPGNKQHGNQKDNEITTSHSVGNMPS

binding result [1]: binds
binding result [2]: binds
B1: mouse Unc5A ectodomain, residues 1-359 (mUnc5A^ecto) (domain or fragment)
chain: not shown
modifications: biotin on the Avi-tag
notes: signal peptide in the construct; mouse Unc5A, residues 1-359; source: HEK293 cells, purified; not shown: Avi-tag, C-terminal, kept
